Experimental data: article PMC8184587

B1: DNA.FA 12 bp dsDNA (dsDNA)
DNA 1: CCTCAATTGGTC
DNA 2: GACCAATTGAGG
B2: 10 bp NMR dsDNA (dsDNA)
DNA 1: CTCAATTGGT
DNA 2: ACCAATTGAG

Key:
AT-LANAA-BD = AT-LANAA-BD (Homo sapiens, UniProt P51531-2 1358-1490, P1378A;P1380A;P1381A); assay: fluorescence anisotropy
BRM AT-L-BD WT (BRM-B) [1] = target: T1, BRM AT-L-BD WT (BRM-B) (Homo sapiens, UniProt P51531-2 1358-1490); assay: fluorescence anisotropy
BRM AT-L-BD WT (BRM-B) [2] = target: T1, BRM AT-L-BD WT (BRM-B); assay: NMR
ATGGGP-L-BD = ATGGGP-L-BD (Homo sapiens, UniProt P51531-2 1358-1490, R1368G;R1370G); assay: NMR
ATDGDP-L-BD = ATDGDP-L-BD (Homo sapiens, UniProt P51531-2 1358-1490, R1368D;R1370D); assay: NMR
BRM AT (AT-hook alone) = target: T2, BRM AT (AT-hook alone) (Homo sapiens, UniProt P51531 1358-1377); assay: NMR
T2 chain: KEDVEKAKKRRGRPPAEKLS

Binder | Kd (AT-LANAA-BD) | Kd (BRM AT-L-BD WT (BRM-B) [1]) | Kd (BRM AT-L-BD WT (BRM-B) [2]) | Kd (ATGGGP-L-BD) | Kd (ATDGDP-L-BD) | Kd (BRM AT (AT-hook alone))
B1 | 4 ± 1 µM | 8 ± 1 µM |  |  |  | 
B2 |  |  | ~3 µM | 130 ± 30 µM | 410 ± 70 µM | 220 ± 30 µM
